From US7267959B2, “Drug target within the sulfonylurea receptor” (priority 2001, dated 2007)

Experiments:
[1] = target: T1, KATP channel (SUR1/KATP complex) in insulinoma HIT cells (Cricetus cricetus, UniProt Q09427); assay: KATP whole-cell patch-clamp currents in insulinoma HIT cells; assay type: cell-based
T1 construct: in HIT cells on the endogenous KATP whole-cell currents; endogenous in cells; host or cells: insulinoma HIT cells
Protocol: Representative KATP whole-cell patch-clamp currents recorded from the control and syntaxin-1A overespressing HIT cells are shown in FIG. 6A. Cells were stimulated by voltage steps from −140 to 0 mV from a holding potential of −50 mV. […] All currents were recorded 15 min after the formation of the whole-cell configuration when a cell interior exchanged with the pipette solution containing low (0.3 mM) ATP concentration. […] An asterisk indicates the first minutes of recording after obtaining the whole-cell configuration. Pipette solution contains 3 mM MgADP and only 0.3 mM ATP. […] Currents were measured at −120 mV, and normalized to the maximal current (Imax).

[2] = system: NBF-1 and NBF-2 of SUR-2A; assay: GST pull-down binding of Syn-1A or SNAP-25 with GST-NBF-1 / GST-NBF-2 of SUR-2A, Western blot; conditions: 375 pmol protein each, 4° C., 2 hours, glutathione beads
Protocol: (§1) GST (control) or GST-NBF-1 or GST-NBF-2 (375 pmol protein)of SUR-1 or SUR-2A, bound to glutathione beads, was incubated with Syn-1A or SNAP-25 (375 pmol protein) in 25 mM Hepes (pH 7.4) with 50 mM NaCl, 0.1% gelatin, 0.1% Triton X-100, 0.1% BSA and 0.2% β-mercaptoethanol at 4° C. for 2 hours. Following washing the beads three times with 20 mM Hepes(pH 7.4) with 150 mM KoAc, 1 mM EDTA, 1 mM MgCl2, 5% glycerol and 0.1% Triton X-100, the samples were subjected to 15% SDS-PAGE, transferred to nitrocellulose membrane and probed with antibody against Syn-1A (1:2000) or SNAP-25 (1:1000).

NBF-1 and NBF-2 of SUR-1 = assay: GST pull-down binding of Syn-1A or SNAP-25 with GST-NBF-1 / GST-NBF-2 of SUR-1, Western blot; conditions: 375 pmol protein each, 4° C., 2 hours, glutathione beads
Protocol: as §1

[3] = target: T2, KATP channel in rat pancreatic beta cells (Rattus norvegicus, UniProt Q09429); assay: KATP whole-cell patch-clamp currents in freshly isolated rat pancreatic beta cells; assay type: cell-based
T2 construct: recorded from the freshly isolated rat pancreatic beta cells; endogenous in cells; host or cells: freshly isolated rat pancreatic beta cells
Protocol: Representative KATP whole-cell patch-clamp currents recorded from the freshly isolated rat pancreatic beta cells in the absence (control) and presence of recombinant syntaxin-1A protein are shown in FIG. 7A. Cells were stimulated by voltage steps from −140 to −20 mV (or 0 mV) from a holding potential of −50 mV. […] Recombinant syntaxin-1A (10^−3 M) was dialyzed into the cell interior through the patch pipette. […] All currents were recorded 15 min after the formation of the whole-cell configuration when a cell interior exchanged with the pipette solution containing low (0.3 mM) ATP concentration that under control conditions opens the KATP channel.

T1 sequence (Q09427 whole entry, one chain of several): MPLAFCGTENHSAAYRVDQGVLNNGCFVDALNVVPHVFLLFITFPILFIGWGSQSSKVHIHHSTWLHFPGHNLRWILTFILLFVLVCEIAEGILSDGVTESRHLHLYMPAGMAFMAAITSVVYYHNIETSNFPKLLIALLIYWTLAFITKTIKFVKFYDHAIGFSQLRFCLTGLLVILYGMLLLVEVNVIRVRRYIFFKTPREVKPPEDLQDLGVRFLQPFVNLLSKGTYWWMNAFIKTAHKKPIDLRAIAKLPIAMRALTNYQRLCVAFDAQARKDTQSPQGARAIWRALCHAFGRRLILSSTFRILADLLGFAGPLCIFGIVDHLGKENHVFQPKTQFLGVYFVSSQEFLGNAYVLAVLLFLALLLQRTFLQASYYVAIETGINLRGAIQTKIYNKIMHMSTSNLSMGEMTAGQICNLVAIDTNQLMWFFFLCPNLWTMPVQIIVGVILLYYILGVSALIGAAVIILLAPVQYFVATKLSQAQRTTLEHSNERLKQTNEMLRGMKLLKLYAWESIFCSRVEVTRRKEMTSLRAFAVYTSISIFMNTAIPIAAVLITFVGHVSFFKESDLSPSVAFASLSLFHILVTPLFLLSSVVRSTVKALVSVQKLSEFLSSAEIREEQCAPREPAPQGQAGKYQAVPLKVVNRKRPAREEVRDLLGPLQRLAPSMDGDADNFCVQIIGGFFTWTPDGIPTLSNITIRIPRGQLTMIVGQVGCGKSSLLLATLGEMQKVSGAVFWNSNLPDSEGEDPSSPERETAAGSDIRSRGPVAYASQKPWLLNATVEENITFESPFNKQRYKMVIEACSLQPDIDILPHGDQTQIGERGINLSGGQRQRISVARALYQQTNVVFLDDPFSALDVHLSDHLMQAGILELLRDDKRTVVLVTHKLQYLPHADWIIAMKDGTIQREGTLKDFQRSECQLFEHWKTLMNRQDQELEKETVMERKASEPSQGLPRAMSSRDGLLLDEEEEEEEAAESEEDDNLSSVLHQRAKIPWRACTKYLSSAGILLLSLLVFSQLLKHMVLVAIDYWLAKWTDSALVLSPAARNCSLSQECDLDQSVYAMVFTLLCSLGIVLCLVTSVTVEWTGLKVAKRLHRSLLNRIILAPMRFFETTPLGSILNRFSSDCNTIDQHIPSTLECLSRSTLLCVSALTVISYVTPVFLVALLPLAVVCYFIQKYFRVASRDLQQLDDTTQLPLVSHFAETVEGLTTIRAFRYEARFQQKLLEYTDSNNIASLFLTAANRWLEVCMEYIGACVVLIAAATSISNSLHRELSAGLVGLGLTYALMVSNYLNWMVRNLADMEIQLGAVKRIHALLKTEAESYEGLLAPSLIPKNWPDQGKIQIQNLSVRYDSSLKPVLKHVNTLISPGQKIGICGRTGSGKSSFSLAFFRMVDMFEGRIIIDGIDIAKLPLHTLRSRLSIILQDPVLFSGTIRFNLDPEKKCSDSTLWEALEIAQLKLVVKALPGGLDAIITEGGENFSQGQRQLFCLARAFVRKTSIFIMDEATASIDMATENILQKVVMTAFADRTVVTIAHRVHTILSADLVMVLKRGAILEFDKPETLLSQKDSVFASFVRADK
T2 sequence (Q09429 whole entry): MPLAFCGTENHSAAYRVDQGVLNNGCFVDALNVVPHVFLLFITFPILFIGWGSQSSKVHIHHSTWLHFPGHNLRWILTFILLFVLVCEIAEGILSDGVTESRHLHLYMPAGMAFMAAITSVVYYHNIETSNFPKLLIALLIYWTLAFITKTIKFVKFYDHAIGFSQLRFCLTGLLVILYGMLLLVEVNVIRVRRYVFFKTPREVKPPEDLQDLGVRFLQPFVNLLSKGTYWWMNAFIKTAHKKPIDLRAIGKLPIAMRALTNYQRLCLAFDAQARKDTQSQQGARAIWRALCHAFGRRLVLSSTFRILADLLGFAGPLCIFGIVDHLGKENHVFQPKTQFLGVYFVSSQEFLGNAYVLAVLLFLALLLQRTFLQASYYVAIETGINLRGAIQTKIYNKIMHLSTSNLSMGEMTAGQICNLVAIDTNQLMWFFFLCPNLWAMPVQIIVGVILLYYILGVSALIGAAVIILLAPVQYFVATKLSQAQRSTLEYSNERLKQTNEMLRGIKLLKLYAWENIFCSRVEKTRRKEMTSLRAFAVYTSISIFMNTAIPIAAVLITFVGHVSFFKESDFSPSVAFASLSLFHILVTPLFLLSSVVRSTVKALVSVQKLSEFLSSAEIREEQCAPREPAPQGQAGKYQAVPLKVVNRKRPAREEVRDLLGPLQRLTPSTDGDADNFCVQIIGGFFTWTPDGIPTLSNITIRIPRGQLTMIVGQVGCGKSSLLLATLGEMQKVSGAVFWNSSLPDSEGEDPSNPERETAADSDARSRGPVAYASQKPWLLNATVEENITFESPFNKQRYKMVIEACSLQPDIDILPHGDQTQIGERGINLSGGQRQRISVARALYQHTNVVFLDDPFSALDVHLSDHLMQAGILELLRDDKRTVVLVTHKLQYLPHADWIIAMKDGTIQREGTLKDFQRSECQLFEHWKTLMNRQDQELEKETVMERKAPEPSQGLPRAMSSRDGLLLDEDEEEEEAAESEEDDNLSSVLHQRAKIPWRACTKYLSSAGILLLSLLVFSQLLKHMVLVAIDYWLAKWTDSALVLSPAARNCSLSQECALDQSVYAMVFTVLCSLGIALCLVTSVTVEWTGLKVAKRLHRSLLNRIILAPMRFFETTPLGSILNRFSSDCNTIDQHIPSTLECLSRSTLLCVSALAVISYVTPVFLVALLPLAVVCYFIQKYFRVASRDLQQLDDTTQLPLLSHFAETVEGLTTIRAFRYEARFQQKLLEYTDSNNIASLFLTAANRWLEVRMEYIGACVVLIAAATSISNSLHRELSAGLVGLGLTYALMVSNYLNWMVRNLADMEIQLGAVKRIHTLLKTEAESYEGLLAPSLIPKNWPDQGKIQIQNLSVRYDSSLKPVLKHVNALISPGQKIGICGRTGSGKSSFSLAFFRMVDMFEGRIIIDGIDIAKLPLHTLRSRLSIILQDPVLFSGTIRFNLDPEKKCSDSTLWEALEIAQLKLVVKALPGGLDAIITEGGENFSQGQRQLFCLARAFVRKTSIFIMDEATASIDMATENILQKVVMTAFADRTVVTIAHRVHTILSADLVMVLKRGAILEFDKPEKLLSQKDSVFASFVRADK
T2 sequence (P70673 whole entry partner): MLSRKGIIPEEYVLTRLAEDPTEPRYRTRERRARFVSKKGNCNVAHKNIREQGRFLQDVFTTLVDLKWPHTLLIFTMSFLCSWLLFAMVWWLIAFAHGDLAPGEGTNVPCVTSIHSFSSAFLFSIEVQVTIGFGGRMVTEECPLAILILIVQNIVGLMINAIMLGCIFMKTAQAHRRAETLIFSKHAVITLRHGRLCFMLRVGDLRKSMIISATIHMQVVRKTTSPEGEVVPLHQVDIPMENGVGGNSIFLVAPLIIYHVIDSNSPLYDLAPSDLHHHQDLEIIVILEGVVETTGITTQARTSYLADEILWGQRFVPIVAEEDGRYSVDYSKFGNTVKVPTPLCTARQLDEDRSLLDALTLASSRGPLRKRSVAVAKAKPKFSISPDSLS

| Substance | reversal of syntaxin-1A inhibited KATP current at t=15 min compared with t=0 min ([1]; MgADP 3 mM in pipette, 0.3 mM ATP, syntaxin-1A overexpressing HIT cells, measured at −120 mV) | binding (pull down) to NBF-1 and NBF-2 of SUR2A [2] | binding (pull down) to NBF-1 and NBF-2 of SUR1 (NBF-1 and NBF-2 of SUR-1) | KATP whole-cell currents versus control beta cells ([3]; recombinant syntaxin-1A 10^−3 M dialyzed through patch pipette, 0.3 mM ATP, 15 min) | inhibitory effect on mean KATP whole cell-currents (channel activity) ([3]; recombinant syntaxin-1A, 0.3 mM ATP in pipette, measured at −120 mV, recorded for 15 minutes) | KATP whole-cell currents versus control cells ([1]; HIT cells transfected with (overexpressing) syntaxin-1A, pipette 0.3 mM ATP, 15 min) | KATP whole-cell current at t=15 min relative to t=0 min ([1]; syntaxin-1A overexpressing HIT cells (>3 fold by Western), pipette 0.3 mM ATP, measured at −140 mV) |
| --- | --- | --- | --- | --- | --- | --- | --- |
| MgADP [reference compound] | 46% |  |  |  |  |  |  |
| syntaxin-1A: endogenous SNARE superfamily protein; recombinant rat syntaxin-1A (SEQ ID NO: 1) or overexpressed in cells |  | directly ‘pulled’ down | directly ‘pulled’ down | reduced compared with the control beta cells | strongly inhibits | reduced compared with the control cells | remained unchanged |
